Measurements published in doi:10.1101/2021.01.26.428356.
pKd: −log10 of the molar value.

Biological target: Fc-tagged receptor-binding domain (RBD) of the SARS-CoV-2 spike (S) protein (SARS-CoV-2) (UniProt P0DTC2)
Assay: BLI; Octet Red96e; Fc-tagged RBD loaded onto the biosensor (streptavidin biosensors as printed), Fab in solution; 1x PBS pH 7.4, 0.01% w/v BSA, 0.002% v/v Tween 20; 60 s association, 60 s dissociation; 1:1 binding model

Substance	pKd
COV107-23 heavy chain paired with the light chain of COVD21-C8 (Fab)	< 6.00
COVD21-C8 heavy chain paired with the light chain of COV107-23 (Fab)	< 6.00
